Experimental data: patent publication US20250197490A1 (HBM ALPHA THERAPEUTICS, published 2025)
Numbering of substitutions follows the chain as printed. Where two headings read alike, the source gives them in different places. One block for each binder: values may come before it.

Legend:
biotinylated CRH [1] = biological target: T1, biotinylated CRH (human and mouse, UniProt P01143 145-185 (rat entry), not fully specified; biotin; which end is not stated for the result (NT-biotin and CT-biotin forms were used)); test: ELISA, CRH (NT biotin)
T1 construct: also called biotin-CRH; CRH (NT biotin)
T1 peptide: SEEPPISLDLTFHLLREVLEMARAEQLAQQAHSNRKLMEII

[2] = biological target: T2, corticotropin-releasing hormone (CRH) peptide (human and mouse, UniProt P01143 145-185 (rat entry), not fully specified); test: cell-based or functional assay
T2 peptide: T1 peptide

biotinylated CRH [3] = biological target: T1, biotinylated CRH; test: ELISA, CRH (NT biotin)
Description: Streptavidin (Thermo, Cat: 21125) was diluted in PBS to a concentration of 2 μg/ml. 100 μl of diluted streptavidin was added per well to ELISA microplates, and the plates were incubated overnight at 4° C. […] Subsequently, plates were washed and incubated with HRP-conjugated goat anti-human IgG (H+L) antibody (Jackson, Cat: 109-035-088) at 37° C. for 1 hour. 100 μL of 3,3′,5,5′-tetramethylbenzidine (TMB) substrate (Biopanda, Cat: TMB-S-003) was added, and the plates were incubated at room temperature for 15 minutes. 100 μL of ELISA stopping solution (Solarbio, Cat #: C1058) was added to terminate the reaction, and the optical density at 450 nm (OD450 nm) was determined by an ELISA plate reader (Molecular Devices, Spectra max 384 plus).
These potential PTMs were mutated individually either in HCDR2 alone, in LCDR1 alone, or in various combinations of mutations, as detailed in Table 3. […] Most ΔPTM variants retained functional activities.

B1: PR302324 (antibody, human IgG1, kappa, V domains shown)
VH: EVQLQQSGPELVKPGASVKMSCKASGYTFTDYFMKWVKQSHGGSLEWIGVISPNNGDTFYNQKFKGKATLTVDKSSSTAFMQLNSLTSEDSAVYSCARGTDRALFAYWGQGTLVTVSA
VL: DVLMTQTPLSLPVSLGDQASISCRSSQSIVHSDGNTYLEWYLQRPGQSPKLLIYKVSNRFSGVPDRFSGSGSGTDFTLKISRVGAEDLGVYYCFQGSHIPWTFGGGTKLEVKR
binding result (biotinylated CRH [1]): binds

B2: PR302312 (antibody, human IgG1, kappa, V domains shown)
VH: B1 VH with V37M, G43K, S52N, K63N, F80Y, S95Y, A97T, D101A
VL: B1 VL with I99V
binding result (biotinylated CRH [1]): binds

B3: PR302335 (antibody, human IgG1, kappa, V domains shown)
VH: DVQLVESGGGLVQPGGSRKLSCAASGFTFSSFGMHWVRQAPEKGLEWVAYISSGSTIFYYADTVKGRFTISRDNPKNTLFLQMTSLRSEDTAMYYCARDITTATFAFWGQGTLVTVSA
VL: DVVLTQTPLSLPVSLGDQVSISCRSSQNLLHNNGNTYLHWYLQKPGQSPRLLIYKVSNRFSGVPDRFSGSGSGTDFTLKITRVEAEDLGVYFCSQSTHIPWTFGGGTKLEIKR
binding result (biotinylated CRH [1]): binds

B4: PR302333 (antibody, human IgG1, kappa, V domains shown)
VH: QIQLVQSGPELKKPGETVKISCKASGYTFTNFGMNWVKQAPGKVLKWMGWINTYTGEPIYADDFKGRFAFSLETSASAAYLQINNLKNEDTATYFCSRSTMITTGGVFAYWGQGTLVTVSA
VL: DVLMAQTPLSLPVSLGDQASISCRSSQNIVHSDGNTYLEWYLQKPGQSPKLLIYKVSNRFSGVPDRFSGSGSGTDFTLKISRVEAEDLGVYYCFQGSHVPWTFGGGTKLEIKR
binding result (biotinylated CRH [1]): binds

B5: PR302332 (antibody, human IgG1, kappa, V domains shown)
VH: B4 VH with N35H, D62A, A78T
VL: B1 VL with T5A, R44K, G84E, I99V, V111I
binding result (biotinylated CRH [1]): binds

B6: PR302043 (antibody, human IgG1, kappa, V domains shown)
VH: EVQLVESGGGLVQPGGSLKLSCAASGFTFSNYWMNWVRQASGKGLEWVGEIRLKSNNYATHYAESVKGRFTISRDDSKNTAYLQMNSLKTEDTAVYYCTRGTLVYWGQGTLVTVSS
VL: DIVLTQSPDSLAVSLGERATINCRASQSVSTSTYNYMHWFQQKPGQPPKLLIKFASNLESGVPDRFSGSGSGTDFTLTISSLQAEDTAVYYCQHSWEIPYTFGQGTKLEIKR
unlabelled nM value (Table 5 matrix; likely hCRHR1-Luc IC50 as in Tables 6-8) [2]: 3.87 nM

B7: PR302041 (antibody, human IgG1, kappa, V domains shown)
VH: B6 VH with V2M, K19R, S41P, G49A, N79S, T80S, A81V, R100V
VL: DIQLTQSPSSLSASVGDRVTITCRASQSVSTSTYNYMHWFQQKPGKAPKLLIKFASNLESGVPSRFSGSGSGTDFTLTISSLQPEDTATYYCQHSWEIPYTFGQGTKLEIKR
unlabelled nM value (Table 5 matrix; likely hCRHR1-Luc IC50 as in Tables 6-8) [2]: 2.54 nM

B8: PR302038 (antibody, human IgG1, kappa, V domains shown)
VH: B6 VH with V2M, K19R, S41P, G49A, N79S, T80S, A81V, R100V
VL: EIVLTQSPATLSLSPGERATLSCRASQSVSTSTYNYMHWFQQKPGQAPRLLIKFASNLESGIPARFSGSGSGTDFTLTISSLEPEDTAVYYCQHSWEIPYTFGQGTKLEIKR
unlabelled nM value (Table 5 matrix; likely hCRHR1-Luc IC50 as in Tables 6-8) [2]: 3.34 nM

B9: PR302069 (antibody, human IgG1, kappa, V domains shown)
VH: B6 VH with V2M, Q13K, K19R, S41P, G49A, N79S, A81V, R100V
VL: B7 VL
unlabelled nM value (Table 5 matrix; likely hCRHR1-Luc IC50 as in Tables 6-8) [2]: 1.54 nM

B10: PR302050 (antibody, human IgG1, kappa, V domains shown)
VH: B6 VH with V2M, G49A, N79S, A81V, R100V
VL: B6 VL
unlabelled nM value (Table 5 matrix; likely hCRHR1-Luc IC50 as in Tables 6-8) [2]: 0.572 nM

B11: PR302048 (antibody, human IgG1, kappa, V domains shown)
VH: B6 VH
VL: B7 VL
unlabelled nM value (Table 5 matrix; likely hCRHR1-Luc IC50 as in Tables 6-8) [2]: 6.66 nM

B12: PR302066 (antibody, human IgG1, kappa, V domains shown)
VH: B6 VH with V2M, Q13K, K19R, S41P, G49A, N79S, A81V, R100V
VL: B8 VL
unlabelled nM value (Table 5 matrix; likely hCRHR1-Luc IC50 as in Tables 6-8) [2]: 2.49 nM

B13: PR302034 (antibody, human IgG1, kappa, V domains shown)
VH: B6 VH with K19R, S41P, T80S, A81L, R100V
VL: B7 VL
unlabelled nM value (Table 5 matrix; likely hCRHR1-Luc IC50 as in Tables 6-8) [2]: 6.87 nM

B14: PR302055 (antibody, human IgG1, kappa, V domains shown)
VH: B6 VH with V2M, G49A, N79S, A81V, R100V
VL: B7 VL
unlabelled nM value (Table 5 matrix; likely hCRHR1-Luc IC50 as in Tables 6-8) [2]: 1.35 nM

B15: PR302031 (antibody, human IgG1, kappa, V domains shown)
VH: B6 VH with K19R, S41P, T80S, A81L, R100V
VL: B8 VL
unlabelled nM value (Table 5 matrix; likely hCRHR1-Luc IC50 as in Tables 6-8) [2]: 14 nM

B16: PR302052 (antibody, human IgG1, kappa, V domains shown)
VH: B6 VH with V2M, G49A, N79S, A81V, R100V
VL: B8 VL
unlabelled nM value (Table 5 matrix; likely hCRHR1-Luc IC50 as in Tables 6-8) [2]: 2.05 nM

B17: PR302045 (antibody, human IgG1, kappa, V domains shown)
VH: B6 VH
VL: B8 VL
unlabelled nM value (Table 5 matrix; likely hCRHR1-Luc IC50 as in Tables 6-8) [2]: 15.3 nM

B18: PR005657 (antibody, human IgG1, kappa, V domains shown)
VH: EVQLVESGGVLVQPGGSLRLSCAASGFTFSSYWMTWVRQAPGKGLEWVANIKQDASEKYYVDSVKGRFTISRDNAKNSLFLQMNSLRAEDTAVYYCARTLIFDYWGQGTLVTVSS
VL: DIVMTQSPLSLPVTPGEPASISCRSSQSLLHSTGYNSLEWYLQKPGQSPQLLIYLGSNRASGVPDRFSGSGSGTDFTLKISRVEAEDVGIYYCMQTLQTPITFGQGTRLEIKR
EC50 (read off the curve) (biotinylated CRH [3]): ~0.03 nM

B21: PR005658 (antibody, human IgG1, kappa, V domains shown)
VH: B18 VH with A55G
VL: B18 VL with N36Q
EC50 (read off the curve) (biotinylated CRH [3]): ~0.03 nM

B22: PR005662 (antibody, human IgG1, kappa, V domains shown)
VH: B18 VH
VL: B18 VL with N36Q
EC50 (read off the curve) (biotinylated CRH [3]): ~0.03 nM

B31: PR302328 (antibody, human IgG1, kappa, V domains shown)
VH: EVKLVESGGGLVKPGGSLKLSCAASGFTFSSYAMSWVRQTPEKRLEWVASIRSGGTTYYPDSVKGRFTISRDNARNILYLQMSSLRSEDTAIYYCTRGIDWGQGTLVTVSA
VL: NIVMTQTPKFLLVSAGDRVTITCKASQSVNNDVAWYQQKPGQSPKLLIYYASNRYTGVPDRFTGSGYGTDFTFTISTVQAEDLAVYFCQQDYSSWTFGGGTKLEIKR
binding result (biotinylated CRH [1]): binds

Next, values leading:

binding result (biotinylated CRH [3]): binds
B19: PR006150 (antibody, human IgG1, kappa, V domains shown)
VH: B18 VH with A55S
VL: B18 VL with N36D

binding result (biotinylated CRH [3]): binds
B20: PR006149 (antibody, human IgG1, kappa, V domains shown)
VH: B18 VH
VL: B18 VL with N36S

binding result (biotinylated CRH [3]): binds
B23: PR006144 (antibody, human IgG1, kappa, V domains shown)
VH: B18 VH with D54E, A55G
VL: B18 VL with S37P

binding result (biotinylated CRH [3]): binds
B24: PR006153 (antibody, human IgG1, kappa, V domains shown)
VH: B18 VH with A55S
VL: B18 VL with N36S

binding result (biotinylated CRH [3]): binds
B25: PR006142 (antibody, human IgG1, kappa, V domains shown)
VH: B18 VH with D54E, A55G
VL: B18 VL with N36D

binding result (biotinylated CRH [3]): binds
B26: PR006148 (antibody, human IgG1, kappa, V domains shown)
VH: B18 VH
VL: B18 VL with S37P

binding result (biotinylated CRH [3]): binds
B27: PR006152 (antibody, human IgG1, kappa, V domains shown)
VH: B18 VH with A55S
VL: B18 VL with S37P

binding result (biotinylated CRH [3]): binds
B28: PR006146 (antibody, human IgG1, kappa, V domains shown)
VH: B18 VH
VL: B18 VL with N36D

binding result (biotinylated CRH [3]): binds
B29: PR006147 (antibody, human IgG1, kappa, V domains shown)
VH: B18 VH
VL: B18 VL with N36H

binding result (biotinylated CRH [3]): binds
B30: PR006151 (antibody, human IgG1, kappa, V domains shown)
VH: B18 VH with A55S
VL: B18 VL with N36H

binding result (biotinylated CRH [1]): binds
B32: PR302331 (antibody, human IgG1, kappa, V domains shown)
VH: B31 VH with T40S
VL: B31 VL with T22A

binding result (biotinylated CRH [1]): binds
B33: PR302339 (antibody, human IgG1, kappa, V domains shown)
VH: B31 VH with M34L
VL: B31 VL
